Laboratory results published in paper PMC7822592, “The half-life of the bone-derived hormone osteocalcin is regulated through O-glycosylation in mice, but not in humans” (eLife, 2020).
No end group written: not given here.

Legend:
[1] = biological target: T1, human plasmin (Homo sapiens, UniProt P00747); assay: Plasmin enzymatic assay on OCN in heat-inactivated plasma; type: in vitro ADME; settings: for % OCN from initial: heat-inactivated Bglap-/- plasma diluted two times in 100 mM Tris pH 7.5, 50 ng/ml, ELISA; for % OCN from initial / % OCN from initial in plasmin (0.3 U/ml): 2hrs, 37°C; for % OCN from initial in plasmin (0.3 U/ml): inset graph, heat-inactivated Bglap-/- plasma, 50 ng/ml
T1 construct: different concentration of human plasmin (Sigma); purchased Sigma P1867
Protocol: The plasmin enzymatic assay was performed on plasma ex vivo in the presence of non-glycosylated OCN and glycosylated OCN as follows: plasma from Bglap-/- mice was heat-inactivated for 30 min at 56°C, then diluted two times in the enzyme assay buffer containing 100 mM Tris buffer pH 7.5. Non-glycosylated OCN or glycosylated OCN was incubated at 50 ng/ml in the diluted plasma for two hours in the presence of different concentration of human plasmin (Sigma) ranging from 0 to 0.3 U/ml. After two hours, OCN level was measured using total mouse OCN ELISA. Results are represented as percentage of initial concentration of non-glycosylated and glycosylated OCN respectively.

[2] = In vivo half-life assay, serum OCN after intraperitoneal injection in Bglap-/- mice; design: species or system mouse; settings: for serum OCN / in vivo half-life / % OCN from initial (relative to maximum at 30 min) / % OCN from initial, mean used for 1/2 life: 40 ng/g i.p.; for serum OCN: ELISA; for in vivo half-life: estimated from declining phase after maximum at 30 min, serum ELISA; for % OCN from initial (relative to maximum at 30 min) / % OCN from initial, mean used for 1/2 life: serum, fasted Bglap-/- mice
Protocol: For in vivo half-life assay, Bglap-/- male mice were injected intraperitoneally with 40 or 80 ng/g of body weight of mouse O-glycosylated ucOCN or non-glycosylated ucOCN, serum OCN level was analyzed at indicated time points using total mouse OCN ELISA. In all ex vivo and in vivo studies, mouse or human proteins were prepared in saline solution (0.9% NaCl) containing BSA (35 mg/ml) as a carrier.

T1 sequence (P00747 581-810 limits assumed): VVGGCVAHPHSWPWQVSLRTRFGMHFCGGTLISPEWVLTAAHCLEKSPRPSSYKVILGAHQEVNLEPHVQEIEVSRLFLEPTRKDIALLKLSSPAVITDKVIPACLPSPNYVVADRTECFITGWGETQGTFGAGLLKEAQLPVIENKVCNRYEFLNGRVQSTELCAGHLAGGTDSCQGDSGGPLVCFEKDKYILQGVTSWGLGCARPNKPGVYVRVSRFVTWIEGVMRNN
T1 sequence (P00747 97-580 partner limits assumed): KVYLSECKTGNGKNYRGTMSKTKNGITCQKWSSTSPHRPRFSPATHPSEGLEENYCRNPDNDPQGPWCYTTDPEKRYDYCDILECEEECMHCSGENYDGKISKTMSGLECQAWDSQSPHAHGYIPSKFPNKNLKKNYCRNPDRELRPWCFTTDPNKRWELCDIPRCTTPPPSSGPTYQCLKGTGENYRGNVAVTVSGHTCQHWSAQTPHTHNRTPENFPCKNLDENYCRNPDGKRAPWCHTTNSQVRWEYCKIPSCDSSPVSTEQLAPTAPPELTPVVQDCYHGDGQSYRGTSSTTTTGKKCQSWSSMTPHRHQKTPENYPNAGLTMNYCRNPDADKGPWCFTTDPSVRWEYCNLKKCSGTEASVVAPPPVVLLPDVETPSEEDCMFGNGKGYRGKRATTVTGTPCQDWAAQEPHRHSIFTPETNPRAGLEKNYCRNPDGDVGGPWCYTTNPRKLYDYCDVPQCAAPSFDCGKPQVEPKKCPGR

ucOCN: Non-glycosylated uncarboxylated mouse osteocalcin produced in bacteria (YLGASVPSPDPLEPTREQCELNPACDELSDQYGLKTAYKRIYGITI; ends and bridges not checked; cysteine pairing not given here; UniProt P86546 50-95, looked up)
% OCN from initial ([1]; plasmin 0 U/ml, replicate 1): 91.2%
% OCN from initial ([1]; plasmin 0 U/ml, replicate 2): 108.8%
% OCN from initial ([1]; plasmin 0.024 U/ml, replicate 1): 69.0%
% OCN from initial ([1]; plasmin 0.024 U/ml, replicate 2): 80.5%
% OCN from initial ([1]; plasmin 0.12 U/ml, replicate 1): 38.3%
% OCN from initial ([1]; plasmin 0.12 U/ml, replicate 2): 44.1%
% OCN from initial ([1]; plasmin 0.3 U/ml, replicate 1): 11.5%
% OCN from initial ([1]; plasmin 0.3 U/ml, replicate 2): 15.5%
% OCN from initial in plasmin (0.3 U/ml) ([1]; replicate 1): 11.5%
% OCN from initial in plasmin (0.3 U/ml) ([1]; replicate 2): 15.5%
% OCN from initial in plasmin (0.3 U/ml) ([1]; replicate 3): 12.3%
% OCN from initial in plasmin (0.3 U/ml) ([1]; replicate 4): 11.4%
% OCN from initial in plasmin (0.3 U/ml) ([1]; replicate 5): 9.9%
reduction of concentration by plasmin ([1]; two hours): more than 90%
serum OCN ([2]; Bglap-/- male mice fasted 16 hr, 15 min, mouse 1): 21.6 ng/mL
serum OCN ([2]; Bglap-/- male mice fasted 16 hr, 15 min, mouse 2): 16.5 ng/mL
serum OCN ([2]; Bglap-/- male mice fasted 16 hr, 15 min, mouse 3): 22.3 ng/mL
serum OCN ([2]; Bglap-/- male mice fasted 16 hr, 15 min, mouse 4): 21.8 ng/mL
serum OCN ([2]; Bglap-/- male mice fasted 16 hr, 30 min, mouse 1): 29.0 ng/mL
serum OCN ([2]; Bglap-/- male mice fasted 16 hr, 30 min, mouse 2): 18.8 ng/mL
serum OCN ([2]; Bglap-/- male mice fasted 16 hr, 30 min, mouse 3): 19.1 ng/mL
serum OCN ([2]; Bglap-/- male mice fasted 16 hr, 30 min, mouse 4): 16.7 ng/mL
serum OCN ([2]; Bglap-/- male mice fasted 16 hr, 60 min, mouse 1): 21.9 ng/mL
serum OCN ([2]; Bglap-/- male mice fasted 16 hr, 60 min, mouse 2): 14.4 ng/mL
serum OCN ([2]; Bglap-/- male mice fasted 16 hr, 60 min, mouse 3): 15.0 ng/mL
serum OCN ([2]; Bglap-/- male mice fasted 16 hr, 60 min, mouse 4): 14.8 ng/mL
serum OCN ([2]; Bglap-/- male mice fasted 16 hr, 90 min, mouse 1): 15.6 ng/mL
serum OCN ([2]; Bglap-/- male mice fasted 16 hr, 90 min, mouse 2): 12.2 ng/mL
serum OCN ([2]; Bglap-/- male mice fasted 16 hr, 90 min, mouse 3): 12.9 ng/mL
serum OCN ([2]; Bglap-/- male mice fasted 16 hr, 90 min, mouse 4): 13.2 ng/mL
serum OCN ([2]; Bglap-/- male mice fasted 16 hr, 120 min, mouse 1): 11.8 ng/mL
serum OCN ([2]; Bglap-/- male mice fasted 16 hr, 120 min, mouse 2): 10.3 ng/mL
serum OCN ([2]; Bglap-/- male mice fasted 16 hr, 120 min, mouse 3): 10.8 ng/mL
serum OCN ([2]; Bglap-/- male mice fasted 16 hr, 120 min, mouse 4): 12.0 ng/mL
in vivo half-life ([2]; Bglap-/- male mice fasted 16 hr): 108 min
in vivo half-life ([2]; Bglap-/- male mice fasted 16 hr, listed as non-glycosylated ucOCN): ~ 108 min
serum OCN ([2]; fed Bglap-/- male mice, 15 min, mouse 1): 39.8 ng/mL
serum OCN ([2]; fed Bglap-/- male mice, 15 min, mouse 2): 45.5 ng/mL
serum OCN ([2]; fed Bglap-/- male mice, 15 min, mouse 3): 45.6 ng/mL
serum OCN ([2]; fed Bglap-/- male mice, 15 min, mouse 4): 45.1 ng/mL
serum OCN ([2]; fed Bglap-/- male mice, 15 min, mouse 5): 35.2 ng/mL
serum OCN ([2]; fed Bglap-/- male mice, 15 min, mouse 6): 29.7 ng/mL
serum OCN ([2]; fed Bglap-/- male mice, 15 min, mouse 7): 14.2 ng/mL
serum OCN ([2]; fed Bglap-/- male mice, 15 min, mouse 8): 30.7 ng/mL
serum OCN ([2]; fed Bglap-/- male mice, 15 min, mouse 9): 21.4 ng/mL
serum OCN ([2]; fed Bglap-/- male mice, 30 min, mouse 1): 67.5 ng/mL
serum OCN ([2]; fed Bglap-/- male mice, 30 min, mouse 2): 58.2 ng/mL
serum OCN ([2]; fed Bglap-/- male mice, 30 min, mouse 3): 51.8 ng/mL
serum OCN ([2]; fed Bglap-/- male mice, 30 min, mouse 4): 52.9 ng/mL
serum OCN ([2]; fed Bglap-/- male mice, 30 min, mouse 5): 43.5 ng/mL
serum OCN ([2]; fed Bglap-/- male mice, 30 min, mouse 6): 27.8 ng/mL
serum OCN ([2]; fed Bglap-/- male mice, 30 min, mouse 7): 13.8 ng/mL
serum OCN ([2]; fed Bglap-/- male mice, 30 min, mouse 8): 34.7 ng/mL
serum OCN ([2]; fed Bglap-/- male mice, 30 min, mouse 9): 14.9 ng/mL
serum OCN ([2]; fed Bglap-/- male mice, 60 min, mouse 1): 46.1 ng/mL
serum OCN ([2]; fed Bglap-/- male mice, 60 min, mouse 2): 20.7 ng/mL
serum OCN ([2]; fed Bglap-/- male mice, 60 min, mouse 3): 25.4 ng/mL
serum OCN ([2]; fed Bglap-/- male mice, 60 min, mouse 4): 25.6 ng/mL
serum OCN ([2]; fed Bglap-/- male mice, 60 min, mouse 5): 15.8 ng/mL
serum OCN ([2]; fed Bglap-/- male mice, 60 min, mouse 6): 8.8 ng/mL
serum OCN ([2]; fed Bglap-/- male mice, 60 min, mouse 7): 7.2 ng/mL
serum OCN ([2]; fed Bglap-/- male mice, 60 min, mouse 8): 10.7 ng/mL
serum OCN ([2]; fed Bglap-/- male mice, 60 min, mouse 9): 5.7 ng/mL
serum OCN ([2]; fed Bglap-/- male mice, 90 min, mouse 1): 16.3 ng/mL
serum OCN ([2]; fed Bglap-/- male mice, 90 min, mouse 2): 7.1 ng/mL
serum OCN ([2]; fed Bglap-/- male mice, 90 min, mouse 3): 9.0 ng/mL
serum OCN ([2]; fed Bglap-/- male mice, 90 min, mouse 4): 10.0 ng/mL
serum OCN ([2]; fed Bglap-/- male mice, 90 min, mouse 5): 6.0 ng/mL
serum OCN ([2]; fed Bglap-/- male mice, 90 min, mouse 6): 4.4 ng/mL
serum OCN ([2]; fed Bglap-/- male mice, 90 min, mouse 7): 4.7 ng/mL
serum OCN ([2]; fed Bglap-/- male mice, 90 min, mouse 8): 5.4 ng/mL
serum OCN ([2]; fed Bglap-/- male mice, 90 min, mouse 9): 4.0 ng/mL
serum OCN ([2]; fed Bglap-/- male mice, 120 min, mouse 1): 8.1 ng/mL
serum OCN ([2]; fed Bglap-/- male mice, 120 min, mouse 2): 4.4 ng/mL
serum OCN ([2]; fed Bglap-/- male mice, 120 min, mouse 3): 5.4 ng/mL
serum OCN ([2]; fed Bglap-/- male mice, 120 min, mouse 4): 6.0 ng/mL
serum OCN ([2]; fed Bglap-/- male mice, 120 min, mouse 5): 4.2 ng/mL
serum OCN ([2]; fed Bglap-/- male mice, 120 min, mouse 6): 3.7 ng/mL
serum OCN ([2]; fed Bglap-/- male mice, 120 min, mouse 7): 3.8 ng/mL
serum OCN ([2]; fed Bglap-/- male mice, 120 min, mouse 8): 4.1 ng/mL
serum OCN ([2]; fed Bglap-/- male mice, 120 min, mouse 9): 3.6 ng/mL
serum OCN ([2]; fed Bglap-/- male mice, 180 min, mouse 1): 1.9 ng/mL
serum OCN ([2]; fed Bglap-/- male mice, 180 min, mouse 2): 2.1 ng/mL
serum OCN ([2]; fed Bglap-/- male mice, 180 min, mouse 3): 1.8 ng/mL
serum OCN ([2]; fed Bglap-/- male mice, 180 min, mouse 4): 1.6 ng/mL
serum OCN ([2]; fed Bglap-/- male mice, 180 min, mouse 5): 3.4 ng/mL
serum OCN ([2]; fed Bglap-/- male mice, 180 min, mouse 6): 3.4 ng/mL
serum OCN ([2]; fed Bglap-/- male mice, 180 min, mouse 7): 3.4 ng/mL
serum OCN ([2]; fed Bglap-/- male mice, 180 min, mouse 8): 3.6 ng/mL
serum OCN ([2]; fed Bglap-/- male mice, 180 min, mouse 9): 3.4 ng/mL
Serum OCN at 120 minutes ([2]; fed Bglap-/- male mice, dose 40 ng/g i.p., mouse 1): 8.1 ng/mL
Serum OCN at 120 minutes ([2]; fed Bglap-/- male mice, dose 40 ng/g i.p., mouse 2): 4.4 ng/mL
Serum OCN at 120 minutes ([2]; fed Bglap-/- male mice, dose 40 ng/g i.p., mouse 3): 5.4 ng/mL
Serum OCN at 120 minutes ([2]; fed Bglap-/- male mice, dose 40 ng/g i.p., mouse 4): 6 ng/mL
Serum OCN at 120 minutes ([2]; fed Bglap-/- male mice, dose 80 ng/g i.p., mouse 1): 6.9 ng/mL
Serum OCN at 120 minutes ([2]; fed Bglap-/- male mice, dose 80 ng/g i.p., mouse 2): 5.7 ng/mL
Serum OCN at 120 minutes ([2]; fed Bglap-/- male mice, dose 80 ng/g i.p., mouse 3): 13 ng/mL
% OCN from initial (relative to maximum at 30 min) ([2]; 30 min, mouse 1): 100.0%
% OCN from initial (relative to maximum at 30 min) ([2]; 30 min, mouse 2): 100.0%
% OCN from initial (relative to maximum at 30 min) ([2]; 30 min, mouse 3): 100.0%
% OCN from initial (relative to maximum at 30 min) ([2]; 30 min, mouse 4): 100.0%
% OCN from initial (relative to maximum at 30 min) ([2]; 60 min, mouse 1): 75.4%
% OCN from initial (relative to maximum at 30 min) ([2]; 60 min, mouse 2): 76.8%
% OCN from initial (relative to maximum at 30 min) ([2]; 60 min, mouse 3): 78.6%
% OCN from initial (relative to maximum at 30 min) ([2]; 60 min, mouse 4): 88.7%
% OCN from initial (relative to maximum at 30 min) ([2]; 90 min, mouse 1): 53.9%
% OCN from initial (relative to maximum at 30 min) ([2]; 90 min, mouse 2): 65.1%
% OCN from initial (relative to maximum at 30 min) ([2]; 90 min, mouse 3): 67.6%
% OCN from initial (relative to maximum at 30 min) ([2]; 90 min, mouse 4): 78.8%
% OCN from initial (relative to maximum at 30 min) ([2]; 120 min, mouse 1): 40.6%
% OCN from initial (relative to maximum at 30 min) ([2]; 120 min, mouse 2): 54.6%
% OCN from initial (relative to maximum at 30 min) ([2]; 120 min, mouse 3): 56.7%
% OCN from initial (relative to maximum at 30 min) ([2]; 120 min, mouse 4): 71.4%
% OCN from initial, mean used for 1/2 life ([2]; time 0 min of declining phase): 100.0%
% OCN from initial, mean used for 1/2 life ([2]; time 30 min of declining phase): 79.9%
% OCN from initial, mean used for 1/2 life ([2]; time 60 min of declining phase): 66.3%
% OCN from initial, mean used for 1/2 life ([2]; time 90 min of declining phase): 55.8%
